Source: patent US20120020961A1 (INSTITUT NATIONAL DE LA SANTE ET DE LA RECHERCHE MEDICALE …, published 2012)
Several values for one entry are separate records, joined by “and”; a condition that tells them apart may be missing. Identical values can stand only once.

B1: murine anti-hPG MAb8 (antibody, V domains shown)
VH: EVQLVESGGGLVKPGGSLKLSCAASGFTFTTYAMSWVRQTPEKRLEWVATISSGGTYTYYPDSVKGRFTISRDNAKNALYLQMSSLRSEDTAMYYCATQGNYSLDFWGQGTSLTVSS
VL: DIVMTQAASSNPVTLGTSASISCRSSKSLRHTKGITFLYWYLQKPGQSPQLLIYQMSNLASGVPDRFSSSGSGTDFTLRISRVEAEDLGVYYCAQNLELPLTFGAGTKLELK
notes: Murine C-terminal anti-hPG monoclonal antibody, immunogen C1; also called hybridoma 1C10D3B9
B2: murine anti-hPG MAb13 (antibody, V domains shown)
VH: EVQLVESGGGLVQPGGSLKLSCAASGFIFSSYGMSWVRQSPDRRLELVASINTFGDRTYYPDSVKGRFTISRDNAKNTLYLQMTSLKSEDTAIYYCARGTGTYWGQGTTLTVSS
VL: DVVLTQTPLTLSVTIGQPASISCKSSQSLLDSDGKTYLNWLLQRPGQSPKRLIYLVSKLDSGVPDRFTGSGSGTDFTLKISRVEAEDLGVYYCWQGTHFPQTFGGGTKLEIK
notes: Murine C-terminal anti-hPG monoclonal antibody, immunogen C1; also called hybridoma 2C6C3C7
B3: murine anti-hPG MAb19 (antibody, V domains shown)
VH: DVQLQESGPGLVKPSQSLSLTCTVTGYSITSDYAWNWIRQFPGNKLEWMGYISFSGYTSYNPSLKSRISVTRDTSRNQFFLQLTSVTTEDTATYYCAREVNYGDSYHFDYWGQGTIVTVSS
VL: QLALTQSSSASFSLGASAKLTCTLSSQHRTYTIEWYQQQSLKPPKYVMEVKKDGSHSTGHGIPDRFSGSSSGADRYLSISNIQPEDEAIYICGVGDAIKGQSVFVFGGGTKVTVL
notes: Murine N-terminal anti-hPG monoclonal antibody, immunogen N2; also called hybridoma 1B3B4F11
B4: murine anti-hPG MAb3 (antibody, V domains shown)
VH: EVQLQQSGTVLARPGASVKMSCKASGYIFTSYWVHWVKQRPGQGLEWIGGFYPGNSDSRYNQKFKGKATLTAVTSASTAYMDLSSLTNEDSAVYFCTRRDSPQYWGQGTTLTVSS
VL: DVLMTQTPLSLPVSLGDQASISCRSSQSIVHSNGNTYLEWYLQKPGQSPKLLIYKVSNRFSGVPDRFSGSGSGTDFTLKISRLEAEDLGVYYCFQGSHVPFTFGGGTKLEIK
notes: Murine N-terminal anti-hPG monoclonal antibody, immunogen N2; also called hybridoma 6B5B11C10
B5: murine anti-hPG MAb4 (antibody, V domains shown)
VH: QVQLQQSGAELMKPGASVKISCKATGYTFSSSWIEWLKQRPGHGLEWIGEFLPGSGSTDYNEKFKGKATFTADTSSDTAYMLLSSLTSEDSAVYYCATDGNYDWFAYWGQGTLVTVSA
VL: DLVMTQTPLSLPVSLGDQASISCRSSQSLVHSSGVTYLHWYLQKPGQSPKLLIYKVSNRFSGVPDRFSGSGSGTDFTLKISRVEAEDLGVYFCSQSTHVPPTFGSGTKLEIK
notes: Murine N-terminal anti-hPG monoclonal antibody, immunogen N2; also called hybridoma 20D2C3G2
B6: murine anti-hPG MAb16 (antibody, V domains shown)
VH: QVQLQQSGAELVKPGASVKLSCKASGYTFTSYYMYWVKQRPGQGLEWIGEINPSNGGTNFNEKFKSKATLTVDKSSSTAYMQLSSLTSEDSAVYYCTRGGYYPFDYWGQGTTLTVSS
VL: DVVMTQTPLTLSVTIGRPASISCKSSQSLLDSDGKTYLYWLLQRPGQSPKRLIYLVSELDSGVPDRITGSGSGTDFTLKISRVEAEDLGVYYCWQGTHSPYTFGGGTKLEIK
notes: Murine N-terminal anti-hPG monoclonal antibody, immunogen N2; also called hybridoma 1E9D9B6

Target: T1, mature human progastrin (human, UniProt P01350 22-101)
T1 construct: In the spheroid assays the progastrin is made by the human liver cancer cells themselves; also called hPG; PG
T1 sequence: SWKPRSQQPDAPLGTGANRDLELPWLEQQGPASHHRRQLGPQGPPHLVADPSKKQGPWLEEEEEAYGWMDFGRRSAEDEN
Experiment: measured KD; method not named at the table (Example 4 describes Proteon SPR, antibody captured by anti-mouse IgG, hPG injected)

Row | Binder | Kd
1 | B1 | 0.1 nM and 0.108 nM
2 | B2 | 0.6 nM and 0.612 nM
3 | B3 | 0.7 nM and 0.779 nM
4 | B4 | 6.4 nM
5 | B5 | 3.5 nM
6 | B6 | 0.2 nM and 0.278 nM
